Assay in all cases: ELISA, antibody coated, OX40-ECD.His mutant supernatant; relative to silent alanine substitutions;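 note: captured OX40 mutant protein detected with HRP-labelled anti-His antibody, absorbance read-out, scaled to the mean signal of control mutants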
The target in experiment [1] is T1, human OX40-ECD.His V75A (human, UniProt P43489 29-214).
T1 construct: extracellular domain; not shown: C-terminal His-tag
T1 sequence (looked up): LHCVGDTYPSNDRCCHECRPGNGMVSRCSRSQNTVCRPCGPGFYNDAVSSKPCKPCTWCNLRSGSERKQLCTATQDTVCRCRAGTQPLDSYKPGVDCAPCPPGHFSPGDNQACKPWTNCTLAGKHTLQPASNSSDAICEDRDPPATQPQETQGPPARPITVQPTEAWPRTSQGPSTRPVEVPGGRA

Experiment [2] concerns the target T2, human OX40-ECD.His G68A (human, UniProt P43489 29-214).
T2 construct: extracellular domain; not shown: C-terminal His-tag
T2 sequence (looked up): T1 sequence (looked up) with G40A, A47V

The target in experiment [3] is T3, human OX40-ECD.His D117A (human, UniProt P43489 29-214).
T3 construct: extracellular domain; not shown: C-terminal His-tag
T3 sequence (looked up): T1 sequence (looked up) with A47V, D89A

For experiment [4], the target named is T4, human OX40-ECD.His N61A (human, UniProt P43489 29-214).
T4 construct: extracellular domain; not shown: C-terminal His-tag
T4 sequence (looked up): T1 sequence (looked up) with N33A, A47V

Experiment [5] has as its target T5, human OX40-ECD.His A164G (human, UniProt P43489 29-214).
T5 construct: extracellular domain; not shown: C-terminal His-tag
T5 sequence (looked up): T1 sequence (looked up) with A47V, A136G

Experiment [6] concerns the target T6, human OX40-ECD.His R47A (human, UniProt P43489 29-214).
T6 construct: extracellular domain; not shown: C-terminal His-tag
T6 sequence (looked up): T1 sequence (looked up) with R19A, A47V

The target in experiment [7] is T7, human OX40-ECD.His P48A (human, UniProt P43489 29-214).
T7 construct: extracellular domain; not shown: C-terminal His-tag
T7 sequence (looked up): T1 sequence (looked up) with P20A, A47V

Experiment [8] has as its target T8, human OX40-ECD.His Q97A (human, UniProt P43489 29-214).
T8 construct: extracellular domain; not shown: C-terminal His-tag
T8 sequence (looked up): T1 sequence (looked up) with A47V, Q69A

Experiment [9] has as its target T9, human OX40-ECD.His R169A (human, UniProt P43489 29-214).
T9 construct: extracellular domain; not shown: C-terminal His-tag
T9 sequence (looked up): T1 sequence (looked up) with A47V, R141A

Experiment [10] addresses T10, human OX40-ECD.His S161A (human, UniProt P43489 29-214).
T10 construct: extracellular domain; not shown: C-terminal His-tag
T10 sequence (looked up): T1 sequence (looked up) with A47V, S133A

Consider one molecule from US20210171647A1 (WUXI BIOLOGICS SHANGHAI, published 2021).

Positions count from the first letter of the chain named.

B1: 1.134.9-u1-IgG1L (antibody, V domains shown)
VH: QVQLQESGPGLVKPSGTLSLTCAVSGGSISSYNWWSWVRQPPGKGLEWIGEIYHGGNTNYNPSLKSRVTMSVDNSKNQFSLKLSSVTAADTAVYYCARAPGDWGGSPYFDFWGQGTLVTVSS
VL: SSELTQDPAVSVALGQTVRITCQGDNLRTYYASWYQQKPGQAPILLIYGRNKRPSGIPDRFSGSSSGNTASLTITGAQAEDEAAYYCNSRDSSGNPVVFGGGTKLTVL
notes: fully human IgG1, lambda
Take B1: the “Fold Change” value in [1] was determined as 0.994; in experiment [2], 0.998; in experiment [3], 0.951; in [4], 0.99; in experiment [5] it was 0.47; in experiment [6], 1. Further, the “Fold Change” value stood at 0.981 in experiment [7], 0.981 in [8], 1 in [9] and 0.945 in experiment [10].
